The results in this text go back to US20020103152.

For this data set, the system named is Sleeping Beauty transposase (SB) (synthetic construct (salmonid Tc1-like, reconstructed)?). The experiment in a line: cell_activity. Particulars: mouse liver, pRSV-βgeo without terminal repeats; 2-4% with repeats.

Some results are limits rather than exact numbers.

“phAAT / pRSV-βgeo plasmids lacking terminal repeats” gave an activity (% of hepatocytes) below 0.01.
